Laboratory results: publication doi:10.1101/2024.06.07.597973

Target: human melanocortin 4 receptor (MC4R) (human) (UniProt P32245)
Test: radioligand binding

UniProt P32245, sequence (P32245 whole entry): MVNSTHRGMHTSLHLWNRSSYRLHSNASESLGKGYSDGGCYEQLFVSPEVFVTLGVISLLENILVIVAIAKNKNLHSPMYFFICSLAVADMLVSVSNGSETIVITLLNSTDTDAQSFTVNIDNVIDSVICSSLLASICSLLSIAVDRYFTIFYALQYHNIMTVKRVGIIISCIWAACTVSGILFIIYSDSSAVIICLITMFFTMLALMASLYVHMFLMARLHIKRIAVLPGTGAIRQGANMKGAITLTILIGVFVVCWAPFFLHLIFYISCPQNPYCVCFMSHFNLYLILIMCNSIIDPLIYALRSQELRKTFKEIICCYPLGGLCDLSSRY

Kd: 0.1 nM
Substance: [^125I]-[Nle^4, DPhe^7]-α-MSH (peptide)
